# Test results reported in the supplement of paper PMC12636428.
# Tested on: Saccharomyces cerevisiae
# Assay: transcriptional activation domain activity (GFP:mCherry ratio, weighted mean of sorted bins, harmonized to initial dataset scale) (arbitrary fluorescence ratio units); higher = stronger transcriptional activation
# Conditions: beta-estradiol 1 µM; induction time 4 h
# Procedure, shortened: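 After a 1:5 dilution into SC with 1 uM beta-estradiol and 4 hours at 30 °C, yeast diploids carrying a GFP reporter and URA3-integrated barcoded tiles were sorted into 8 bins by GFP:mCherry ratio. The tiles were fused to an estradiol-inducible synthetic transcription factor. Barcodes were sequenced, tiles below 50 reads were discarded, and activation activity was taken as the read-weighted mean of bin median fluorescence, averaged across barcodes and linearly mapped onto the initial dataset scale.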
row,Sequence,transcriptional activation domain activity
1,PASPPIDRMERLHIRRTSPSPQGNYDEIRIDRARRISSSPPRRYEEVRVRHVS,26700
2,EAAPKEDAAPEPAPEKESKPEKAPEPKAEASKPAAPPASEKKDLKTAPKEETK,28500
3,DAESDNEEGAAGAADKKKKKKKKGASTAATSTPAEDEAAAAKGKKKPAAPLAA,53700
4,MVLLCAYERGLGLDIGVSGFVSFFSFLTLFFFFPIYLFFSLLYFLCVCLLCCA,49700
5,PSGGLFGNNNASTTTGGIGLFGNNNAAASTGGGLFGKPAASTTTATTGGLFGA,17400
6,ATLNLIFTIDLLNFSFWSELPEDERFCIEYRGKRWTGYWSLVAALQRALDEGV,39000
7,ALNDPSILETLSPFFQPFGVDVAHLPMTNPPIFQSSLPGCDEPIRRRRISISN,81300
8,GGKRKGEQGHGAGQRGKGDGQGRGGRGRGRGEGGEEKGRRAERKEERGRRGRS,16300
9,CKRCSTLTCVGCGSRPLEKKLATEINVQGTKLTWCCSRGRLFVIWAILCGFDQ,43900
10,KALVDAIITSHNIIIVHNQLIWFPNIVFLMSLIPLHIAAMNLWMALDMLFCFC,52900
11,VAEDLFERVRLDWLILFDLRMWKKVRCDLRSLYISTVVTIPEFKRVLGLRFAG,37300
12,MPLPPLSLSLLVLHSRHSQHSFSLHTYTLTFLFYFPYLLIDLDYLAFFFIFFP,41400
13,RDDGDDDDGDDHDEEREDGGTRGEGRRRGEKGGREGEAARAEVHEASAEAEAG,16300
14,LLLALLIADCGHLVSMRGLGVQVYWNIWEWNVFTAASVLLVYFYITLRICFLF,53300
15,AFLCWVAPNNQVANFLGSGFGGMGFLNLSLDWSNISTNGSLFLTPWWTQVVMF,52500
16,GYRIVKMLGTVYGITVRSRNWAAGLGMVLKSVVGGELRWFTNLLYTARNDAIG,48300
17,EQYKLVCEALHERATFLEIAPYLAHQLPIMLPLYKWWQLPYYWAGCKVYDLLA,43400
18,QENAQTEKEERDEKERAREKGNEKEKGNESEKGDEKKKGNEKKKGTERGKGKG,28100
19,YYCLLWVRVSIKGQKGAVIAPEQIVIGWVDFHALIIVLWSNRISITLCVARVI,29200
20,MRLYCKVVYCHLFVSYLLPLSLTAHLNHLSKGRSLAIFCLLVLILSSFLFSFS,27000
21,CDEHINMKEKEPEKDETPAADGAAKEEEKKPETKPDDTFQAFVVIAVALISMG,27600
22,MPGVTGHHLTSWYWLSFIFIFLFYFALLVVFIWVIFSYLFTHLIRFGHAVVVS,29000
23,RPPVLRLRALTALITVLILLLAAIVVLYRFSERSLLYQTAFIYQAKIPYFNSI,24500
24,TSWKNEDQALVFHLRSRVSAAIMKLECHRDRRIDLLITFREAQRFLLELIGWV,59400
25,NPLPPKNNGQAAYKETDGIRIKDRRVLVDVERGRTVKGWKPRRFGGGLGGRGY,47500

row,Sequence,transcriptional activation domain activity
1,MLLASGCWIQSTYGLFYKCLYFFYLAIFFDHFTFSLNNFLITQCRYPIISLFI,78000
2,SNPLTSQANRMSSYDKKTNVLGFDDGTFDNKVFNRTNFEEKAPFDIPLDEFFT,119000
3,MGYGEQRGSFGGRGGRGGSRGGRGGFGGGDRFNQGPPSEVVVVGAFVSACEGE,52900
4,FMNTNEINNNNNNNNNNKNNINNINNNNSNNFSATSFNLGTLDEFVNNGDLED,11800
5,LSAIVWQIVVDYFYDFVYLTSGLLWPPPTDFIMHTEHFYAGQLIVLLFFYTSL,69200
6,DCDIAQQQRFGAMFDDLLKSRETYFLRCSLSTWEIEHDVWWPFYLRSLEWCYF,50000
7,MLLFIFWRLLYFFILGSLLRAQSRRKWLVRWCREHGFGPNPRRPRSGWVTFWV,59600
8,MAIYEAASTPGSSAGSHADKPYHSKRPHRKSRKGCRTCKARKVKCDEVRPSCT,27900
9,IFAFGYWLEESGKLLRLDLFTRFYAWGRIVLPRVGDAMIFYWENDTFGIRRGF,69000
10,MVFFFFFFFLEGGGLVGWLCSALIFPLSFFLSSKLCLLLPLYYYSNCVFFFLC,75600
11,AYWVVLGIWWFIFQQHCPGPPLPMGKNYLTIGWKQIWLAVKQYKHMPYTFIYL,53300
12,FLLFLSFGGLGGGIYSLCFGHIFSSLFLLFVLFSTSFPYMGPQLHVVMMPTCT,40500
13,MFCLRSWIPVLFFLLRTNASPVYLVLFLSATYFLNRPCVYCSLLLFILVVALF,46500
14,LWTCLLITLILPSPLFSSLFFPSPLFSFLLCLFFTFYLSFPSLFLSCPPPFAG,51800
15,MTWFLSFWLKCGFVLLGLFFDFFLFCNRFLYASISFFFFFHSLSLFWNRNHLF,79900
16,RNSSLEEEDQVVAEGEVVGAAEEEGGEGEGREEVVVTEGREDMAVVGMAGMAD,35400
17,HFILTYLLLFMSVPFEFVMASFEFFHLIHCLKFPNTFYSFFFSFVFFLRHFVF,56700
18,AASQNVDAQPKPKPAQDNDLESESGTSSSSSSSSESGSESDSGSDDGSASGSG,< 6570
19,KEVKEGEEGEKPKRGRKRKEAPAENGEEKEEKEPAAKKAKPASKAAPGSKPAS,12700
20,PLLVLSKRLHSIFMLRCFNDCFAVLGLWLAIFCYQRDQWHLGSFFYSTGLNVK,71500
21,QGDTDADGNGHGTHCSGTIAGKKYGVAKKAHVYAVKVLRSNGSGTMADVIGGV,59600
22,SVGASSGSGSGSGKRRGEEGEEGDEGEEGEEGDEGEEGDEEEGVEELVQGEGQ,7800
23,ASSSAPAAEPEAAAEEAPKKEEAAPAKEEPAAATTATAAAAGESSEAPKEAAP,33900
24,PLAGNSPGLPPEEVRNNSENASHNNETGPIETELAQTISNEFWTAYNLGWEEL,56400
25,MLIQSQPQPPPTKHTPLYFIPHFILLLLLALSPSLTLLTLSFFYLFLFCYLLV,20900

row,Sequence,transcriptional activation domain activity
1,DVVDHSGDLFIRCNEIFGRQCIRNYIPSDPIWLIPLLGLLHRRLMYKVRLIYP,71700
2,PAASTTHATAAPPAAPSPPSQTTPSAPATAASAPRTSPRPCASSCTSSATSRS,31600
3,SFVAYFSALWRGKQHRMTGYPVYDFFMGAELNPRMFGILDFKMFFEVRMPWYI,51000
4,SPSRRRDRDYDYSRYRRRDDSRSRSPRRRADPKDQQEKEKEKVKVKPSRAAAT,16200
5,IGKVTSAGLMSKTVRVDRPVQEWHNYLRKFYKSSKHYLVHDPANSLRTGDMIS,69800
6,MGVICIFICFAVGLSTIITNLLSWLLLFSIICLICAPIILFVEVPFLLRICPT,61400
7,KKKRDNRREKPRKSRKGRSDDEIREGEEGESRRRKRKEGGGRARAATPQEENE,32800
8,IGQFRFLQRLVLVHGRWSYRRLAETISNFFYKNMIWTFSIFWYQVFCNFDITY,24600
9,KKRRKKAKEGAERGKKKRKHTDDGAGVADGVDQRDSQRESDESSADEDGNSGK,38300
10,SFMKVLFLLTRYIPFLSTPLDLYYLLAPNMTFRTCLVTFMISRWLLCAGIVCA,56200
11,ALLSSLHFGLGSHFRDIILKHPQWLIPLMRWLYIQNATYFNCSGIVKMSLLFQ,46400
12,DLLLEGYDTNRLLVVIPFTCKVLEQAAKSMVFKPPNPWLMAIVKLLAELYLYA,73900
13,ALILIFSQLTFTPYALESRNLHVAVRIFRVLIDLLEQAKSGKIRLTILQFLMR,71100
14,HSQYMGYFGGYLVCHLWFTHRFVGMLRLGVVDVVWRFCVYLGLVGWSLGVCYS,72500
15,ELVVLRFWSLKAIVFFFVLVLQTVSLGAGKGGGLYKDLFTLFLHILCILELCC,61300
16,MLEGILGWSKWQKYSIKWYIWLPRLFFQSFFPFFSCPISLQKFSVLLFHFFFL,59700
17,YYGWLPFGISSILVEIPYCMFFCASFMCGFYWTAGLVNHPVNCGYFYLMLMFF,69900
18,ADADAGKEAEGGAGGKRCKGCGKGEGEGEEGGLRRCARCKVVVYCGRECQKRD,36700
19,MFRLLEESFRYEPFVTFGLAVFACYFALIALNVVYYYYLFHFLWFCSYAFLAL,51600
20,LELPDNLDNADFSKLLEFDAKNDEALFNSNELLSHTMDPVNNIDLTHDHSREV,93000
21,YAILYFLFFGAWGLRIMSHLPSWWYNCPQFWIDYPHWQMTPELKCYYLMQASY,73600
22,PNIILPLNPCRSGEFCELYPSAANLWAMFLHLILFCMQLPFILSIPFWLLFPV,52900
23,GLVYMIGVYSISGLDRTLQMIHAILHVNFNSLVHKKGITHSCLLWLILIFFGL,48000
24,ALAVMFAEAVALSWWVSALKGQTLECLHFQWEVGQSVLKILLKRRFWGWVCVA,46700
